Results published in doi:10.1101/2022.01.07.475460.

Target: Recombinant Xenopus laevis Chromosomal Passenger Complex (INCENP, Aurora B 33-368, Survivin-B, Borealin/Dasra-A) (Xenopus laevis) (UniProt Q6GPL3)
Experiment: partitioning into condensates

Sequence of UniProt Q6GPL3 (Q6GPL3 whole entry, looked up, tested part not stated, one chain of several): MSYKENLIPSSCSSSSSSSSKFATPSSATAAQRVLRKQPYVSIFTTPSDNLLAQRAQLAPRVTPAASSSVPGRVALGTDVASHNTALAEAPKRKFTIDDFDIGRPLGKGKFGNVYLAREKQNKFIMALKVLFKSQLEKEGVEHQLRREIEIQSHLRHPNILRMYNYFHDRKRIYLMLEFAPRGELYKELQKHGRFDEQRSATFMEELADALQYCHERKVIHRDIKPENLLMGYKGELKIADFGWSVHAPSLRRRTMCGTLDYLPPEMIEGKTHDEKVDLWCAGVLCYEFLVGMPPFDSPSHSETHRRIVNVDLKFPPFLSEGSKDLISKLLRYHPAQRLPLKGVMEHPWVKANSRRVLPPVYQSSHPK

“α/β-tubulin dimers (from UniProt Q6B856 1-445) (complex)” gave an enrichment in condensates (partition coefficient) of 5 fold.
